{"source": "paper PMC10371147", "key": {"[1]": {"molecular_target": "mTmc1 tagged with mRuby3 (mTmc1-mRuby3) (mouse) (UniProt Q8R4P5)", "sequence (Q8R4P5 whole entry)": "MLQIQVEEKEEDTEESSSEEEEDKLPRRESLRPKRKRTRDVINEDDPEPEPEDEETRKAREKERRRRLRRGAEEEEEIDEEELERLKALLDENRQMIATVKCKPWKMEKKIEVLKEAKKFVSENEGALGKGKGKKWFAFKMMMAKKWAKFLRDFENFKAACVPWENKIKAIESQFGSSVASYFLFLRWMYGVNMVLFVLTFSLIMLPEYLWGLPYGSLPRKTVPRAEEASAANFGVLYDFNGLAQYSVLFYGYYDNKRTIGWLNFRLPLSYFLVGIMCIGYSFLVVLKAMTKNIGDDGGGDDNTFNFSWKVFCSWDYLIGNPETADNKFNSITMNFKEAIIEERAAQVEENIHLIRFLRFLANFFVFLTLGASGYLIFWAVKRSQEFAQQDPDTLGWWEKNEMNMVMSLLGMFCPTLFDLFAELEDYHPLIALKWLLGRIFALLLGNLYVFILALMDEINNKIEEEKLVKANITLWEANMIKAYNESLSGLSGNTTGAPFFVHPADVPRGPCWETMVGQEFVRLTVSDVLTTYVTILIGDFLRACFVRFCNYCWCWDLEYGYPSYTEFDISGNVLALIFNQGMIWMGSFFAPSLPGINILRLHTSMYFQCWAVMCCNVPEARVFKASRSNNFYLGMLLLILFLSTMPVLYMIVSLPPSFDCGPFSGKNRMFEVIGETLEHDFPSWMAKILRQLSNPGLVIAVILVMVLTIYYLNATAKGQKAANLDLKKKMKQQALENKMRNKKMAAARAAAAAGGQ"}, "[2]": {"molecular_target": "mTmc1 tagged with mRuby3 (mTmc1-mRuby3) (mouse) (UniProt Q8R4P5)", "experiment": "FRET or BRET; acceptor photobleaching in living N2A cells co-transfected with mPz1-mClover3 (donor) and mTmc1-mRuby3 (acceptor), Tyrode's solution pH 7.4, region of the surface membrane"}}}
{"substance": "mouse Pz1 tagged with mClover3 (mPz1-mClover3), E2JF22 1-2547", "values": [{"measurement": "block by dihydrostreptomycin (DHS) of the mechanically activated current in N2A cells co-transfected with Pz1 and Tmc1, against Pz1 alone", "setting": "[1]", "value": 1000, "unit": "fold"}, {"measurement": "FRET efficiency (E)", "setting": "[2]", "value": 0.1}]}
